Test results as given in publication PMC5388505, “Interferon-inducible ribonuclease ISG20 inhibits hepatitis B virus replication through directly binding to the epsilon stem-loop structure of viral RNA”.

Assays:
ISG20 (wild type) [1] = target: T1, ISG20 (wild type) (UniProt Q96AZ6 1-181); test: EMSA; no Mn2+; bottom 4 bp stated indispensable for binding; ISG20 EMSA: 20 mM HEPES, 100 mM KCl, 1 mM DTT, 0.5 mg/ml BSA, 10% glycerol, 0.05 ug/ul poly[dI-dC], 30 C 30 min, 100 ng RNA, pH not stated; Pol EMSA: 20 mM Tris pH 7.5, 2 mM MgCl2, 15 mM NaCl, 20 mM KCl, 4 mM DTT, yeast tRNA, 30 C 1 h; conditions: protein: recombinant; label: 5'-32P; hairpin
ISG20 (wild type) [2] = target: T1, ISG20 (wild type); test: EMSA; no Mn2+; ISG20 EMSA: 20 mM HEPES, 100 mM KCl, 1 mM DTT, 0.5 mg/ml BSA, 10% glycerol, 0.05 ug/ul poly[dI-dC], 30 C 30 min, 100 ng RNA, pH not stated; Pol EMSA: 20 mM Tris pH 7.5, 2 mM MgCl2, 15 mM NaCl, 20 mM KCl, 4 mM DTT, yeast tRNA, 30 C 1 h; conditions: protein: recombinant; label: 5'-32P; hairpin
ISG20 dExoIII = ISG20 dExoIII (UniProt Q96AZ6 1-181, del147-157); test: EMSA; no Mn2+; binding completely lost; ISG20 EMSA: 20 mM HEPES, 100 mM KCl, 1 mM DTT, 0.5 mg/ml BSA, 10% glycerol, 0.05 ug/ul poly[dI-dC], 30 C 30 min, 100 ng RNA, pH not stated; Pol EMSA: 20 mM Tris pH 7.5, 2 mM MgCl2, 15 mM NaCl, 20 mM KCl, 4 mM DTT, yeast tRNA, 30 C 1 h; conditions: protein: recombinant; tags: 6xHis (pRSET A); label: 5'-32P; stem-loop with bulge and apical loop
ISG20 D94G = ISG20 D94G (UniProt Q96AZ6 1-181, D94G); test: EMSA; no Mn2+; complex with altered mobility; ISG20 EMSA: 20 mM HEPES, 100 mM KCl, 1 mM DTT, 0.5 mg/ml BSA, 10% glycerol, 0.05 ug/ul poly[dI-dC], 30 C 30 min, 100 ng RNA, pH not stated; Pol EMSA: 20 mM Tris pH 7.5, 2 mM MgCl2, 15 mM NaCl, 20 mM KCl, 4 mM DTT, yeast tRNA, 30 C 1 h; conditions: protein: recombinant; tags: 6xHis (pRSET A); label: 5'-32P; stem-loop with bulge and apical loop
ISG20 dExoII = ISG20 dExoII (UniProt Q96AZ6 1-181, del86-101); test: EMSA; no Mn2+; binding not reduced, even increased vs wild type; ISG20 EMSA: 20 mM HEPES, 100 mM KCl, 1 mM DTT, 0.5 mg/ml BSA, 10% glycerol, 0.05 ug/ul poly[dI-dC], 30 C 30 min, 100 ng RNA, pH not stated; Pol EMSA: 20 mM Tris pH 7.5, 2 mM MgCl2, 15 mM NaCl, 20 mM KCl, 4 mM DTT, yeast tRNA, 30 C 1 h; conditions: protein: recombinant; tags: 6xHis (pRSET A); label: 5'-32P; stem-loop with bulge and apical loop
ISG20 dExoI = ISG20 dExoI (UniProt Q96AZ6 1-181, del7-16); test: as above; conditions: protein: recombinant; tags: 6xHis (pRSET A); label: 5'-32P; stem-loop with bulge and apical loop
ISG20 (wild type) [3] = target: T1, ISG20 (wild type); test: EMSA; no Mn2+; dose-dependent; supershift with anti-His; competed by 10-40x cold epsilon; ISG20 EMSA: 20 mM HEPES, 100 mM KCl, 1 mM DTT, 0.5 mg/ml BSA, 10% glycerol, 0.05 ug/ul poly[dI-dC], 30 C 30 min, 100 ng RNA, pH not stated; Pol EMSA: 20 mM Tris pH 7.5, 2 mM MgCl2, 15 mM NaCl, 20 mM KCl, 4 mM DTT, yeast tRNA, 30 C 1 h; conditions: protein: recombinant; label: 5'-32P; stem-loop with bulge and apical loop

Binder: CAUGUCCUACUGUUCUGGGGCAUG (structured_RNA) [Lower stem d4bp + bulge (LSd4+B)]
- binding result (ISG20 (wild type) [1]): no binding

Binder: UCAAGCCUCCAAGCUGUGCCUUGGGUGGCUUUG (structured_RNA) [Upper stem + loop (US+L)]
- binding result (ISG20 (wild type) [2]): no binding

Binder: CUUGUUCAUGUCCUACUGUUCUGGGGCAUGGACAUC (structured_RNA) [Lower stem + bulge (LS+B)]
- binding result (ISG20 (wild type) [2]): binds

Binder: CUUGUUCAUGUCCUACUAAAAUGGGGCAUGGACAUC (structured_RNA) [Lower stem + bulge mutant (LS+Bm)]
- binding result (ISG20 (wild type) [2]): binds

B1: HBV epsilon full length (FL) (structured_RNA)
RNA: CUUGUUCAUGUCCUACUGUUCAAGCCUCCAAGCUGUGCCUUGGGUGGCUUUGGGGCAUGGACAUC
- binding result (ISG20 dExoIII): no binding
- binding result (ISG20 D94G): binds
- binding result (ISG20 dExoII): binds
- binding result (ISG20 dExoI): binds
- binding result (ISG20 (wild type) [3]): binds
